Here are results for 1 molecule from paper PMC10437922, “DNAJB3 attenuates ER stress through direct interaction with AKT” (PLOS ONE, 2023).

For orientation: Kd means the equilibrium constant for the complex coming apart. For orientation: stoichiometry N means the number of molecules, sites or subunits per partner or assembly.

The assay has as its target T1, His-AKT1 (human, UniProt P31749 1-480).
T1 construct: 'human' stands only before DNAJB3; also called pH6K-AKT1; source: E. coli BL21 (DE3), purified (Ni-NTA, gel filtration Superdex 200)
The experiment in a line: ITC; DNAJB3 (250 uM, syringe) titrated into 20 uM protein in the cell; 25°C; 25 mM Tris-HCl pH 8.0, 150 mM NaCl, 1 mM DTT; one-site binding model. The following applies: both partners purified.

T1 sequence (P31749 whole entry): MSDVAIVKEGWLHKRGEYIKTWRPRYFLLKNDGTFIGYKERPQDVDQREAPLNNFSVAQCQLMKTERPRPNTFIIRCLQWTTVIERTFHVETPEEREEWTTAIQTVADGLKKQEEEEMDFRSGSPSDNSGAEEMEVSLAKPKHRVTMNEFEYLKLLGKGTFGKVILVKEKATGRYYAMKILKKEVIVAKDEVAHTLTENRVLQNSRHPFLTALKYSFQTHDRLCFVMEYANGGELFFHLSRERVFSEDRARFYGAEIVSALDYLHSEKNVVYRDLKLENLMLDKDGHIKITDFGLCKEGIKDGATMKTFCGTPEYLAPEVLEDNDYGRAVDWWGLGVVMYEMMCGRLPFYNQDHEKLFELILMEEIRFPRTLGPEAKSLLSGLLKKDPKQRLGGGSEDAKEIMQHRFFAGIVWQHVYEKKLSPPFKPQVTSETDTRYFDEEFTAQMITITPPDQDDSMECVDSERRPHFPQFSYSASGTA

B1: His-DNAJB3 (natural protein)
chain: not shown
notes: 6xHIS residues'; also called hDNAJB3; pH6K-DNAJB3; source: E. coli BL21 (DE3), purified (Ni-NTA, gel filtration Superdex 200)
For the molecule B1, the Kd was approximately 62 µM and the “stoichiometry N” value stood at 0.84.
